Paper PMC7515635 (2020)

B1: GST-ATG8A (natural protein)
chain: MAKSSFKISNPLEARMSESSRIREKYPDRIPVIVEKAGQSDVPDIDKKKYLVPADLTVGQFVYVVRKRIKLGAEKAIFVFVKNTLPPTAALMSAIYEEHKDEDGFLYMTYSGENTFG

Key:
GST-ATG8A = target: B1; assay: SPR; derived from AIM wt peptide competition
AIM wt peptide = assay: SPR

Row | Binder | Kd (GST-ATG8A) [µM] | Kd (AIM wt peptide) [µM]
1 | HIS6-AtC53 (natural protein) not shown | ~1.39 | 
2 | B1 |  | 5.88
3 | GST-GABARAP (natural protein) MKFVYKEEHPFEKRRSEGEKIRKKYPDRVPVIVEKAPKARIGDLDKKKYLVPSDLTVGQFYFLIRKRIHLRAEDALFFFVNNVIPPTSATMGQLYQEHHEEDFFLYIAYSDESVYGL |  | 1.64
